Experimental data: patent US8309791

Assays:
Experiment in all cases: cell_activity
[1] = test system: Tol2 transposase; settings: colony formation in PEGE cells
[2] = test system: Sleeping Beauty transposase SB11 (synthetic (reconstructed fish Tc1-like)?); settings: colony formation in PEGE cells
[3] = test system: rtTR-KRAB2S-M2 (Escherichia coli / Homo sapiens fusion?); settings: tet-off version, shCFTR1 expression with vs without doxycycline in pig fibroblasts
[4] = test system: tTR-KRAB (Escherichia coli / Homo sapiens fusion?); settings: tet-on version, shCFTR1 expression with vs without doxycycline in pig fibroblasts
[5] = test system: piggyBac transposase; settings: colony formation in PEGE cells; TTAA target
[6] = test system: Passport (PP, PPTN) transposase PTs1; settings: colony formation in PEGE cells

“mini Tol2 transposon inverted repeats (pGTol2P-PTK)” was tested. Which activity (fold over no transposase) [1] did it give?
Its activity (fold over no transposase) is 21.

“SB transposon inverted terminal repeats (pT2-FloxP-PTK, pKT2P-PTK)” was tested. Which activity (fold over no transposase) [2] did it give?
Its activity (fold over no transposase) is 13.5.

How did the activity [3] turn out when tet operator (TRE) was run?
The activity was 67 fold change.

And the activity [4]?
Its activity is 64 fold change.

For piggyBac LTR1/LTR2 (pPBTP-PTK), which activity (fold over no transposase) [5] is on record?
The activity (fold over no transposase) was 28.

“PP transposon inverted repeats (pPTnP-PTK)” was tested. Which activity (fold over no transposase) [6] did it give?
Its activity (fold over no transposase) is 5.
